A word on the Kd: it is the equilibrium constant for the complex coming apart. High values mean a looser complex, low ones a tighter complex. What is called IC50 is the concentration that inhibits the measured activity by half. Higher therefore signals weaker potency.

The target of experiment [1] is T1, SARS-CoV-2 spike receptor-binding domain (RBD) (SARS-CoV-2, UniProt P0DTC2 319-541). The experiment in a line: BLI.
Experiment [2] has as its target T1, SARS-CoV-2 spike receptor-binding …. The experiment in a line: ELISA.
The next experiment deals with SARS-CoV-2 WT RBD (SARS-CoV-2, UniProt P0DTC2 319-541). Briefly: BLI. (In BLI a coated tip is dipped into the sample, and binding shifts an interference pattern.)
The next experiment addresses RBD (SARS-CoV-2, UniProt P0DTC2 319-541). Briefly: ELISA. (In general: In an ELISA, binding on a coated surface is turned into a signal by an enzyme label.)

B1: PDI 96 (antibody, V domains shown)
VH: LVQLVQSGAEVKKPGASVKISCKASGYTFTSYYMHWVRQAPGQGLEWMGIINPSGGGTSYAQKFQGRVTMTRDTSTSTVYMELTSLRSDDTAVYYCAKDRVTIFWGNGMDVWGQGTTVTVSS
VL: not shown
B1 came in with a Kd in experiment [1] of 2.6 nM. The molecule also had an IC50 in experiment [2] of 0.346 µg/mL.

B2: REGN10933 (antibody, V domains shown)
VH: QVQLVESGGGLVKPGGSLRLSCAASGFTFSDYYMSWIRQAPGKGLEWVSYITYSGSTIYYADSVKGRFTISRDNAKSSLYLQMNSLRAEDTAVYYCARDRGTTMVPFDYWGQGTLVTVSS
VL: DIQMTQSPSSLSASVGDRVTITCQASQDITNYLNWYQQKPGKAPKLLIYAASNLETGVPSRFSGSGSGTDFTFTISGLQPEDIATYYCQQYDNLPLTFGGGTKVEIKR
The molecule B2 gave a Kd in the experiment with SARS-CoV-2 WT RBD of 3.5 nM. For the same molecule, the IC50 in the experiment with RBD came out at 0.293 µg/mL.

B3: REGN10987 (antibody, V domains shown)
VH: QVQLVESGGGVVQPGRSLRLSCAASGFTFSNYAMYWVRQAPGKGLEWVAVISYDGSNKYYADSVKGRFTISRDNSKNTLYLQMNSLRTEDTAVYYCASGSDYGDYLLVYWGQGTLVTVSS
VL: QSALTQPASVSGSPGQSITISCTGTSSDVGGYNYVSWYQQHPGKAPKLMIYDVSKRPSGVSNRFSGSKSGNTASLTISGLQSEDEADYYCNSLTSISTWVFGGGTKLTVLR
Regarding B3, in the experiment with SARS-CoV-2 WT RBD, binding was characterised by a dissociation constant (Kd) of 17.6 nM. For the same molecule, in the experiment with RBD, 0.298 µg/mL corresponded to half-maximal inhibition (IC50).

B4: PDI 231 (antibody, V domains shown)
VH: EVQLVESGGGLIQPGGSLRLSCVASGLTVSSNYMNWVRQTPGKGLEWVSVIYSGGSTFYADSVKGRFTISRDNSKNTLFLQMNSLRAEDTAVYYCARVGGYCSSANCVSDVWGKGTTVTVSS
VL: DIQMTQSPSSLSASVGDRVTITCQASQDIRNYLNWYQQKPGKAPKIMIYDASILETGVPSRFSGSGSGTDFTFTISSLQPEDIATYYCQQYDNLPITFGQGTQLEIK
With B4, the Kd in experiment [1] was 0.38 nM. The IC50 in experiment [2] turned out to be 0.328 µg/mL.

B5: PDI 42 (antibody, V domains shown)
VH: EVQLVESGGGLVQPGGSLRLSCAASGLTVSSNYMSWVRQAPGKGLEWVSVFYPGGSTYNADSVKGRFTISRDNSKNTLYLQMNSLRAEDTAVYYCARDAVYYGMDVWGQGTTVTVSS
VL: not shown
Consider B5, for which the affinity in experiment [1], expressed as Kd, was 1.1 nM. The IC50 in experiment [2] worked out at 0.31 µg/mL.

Values taken from US20250066455A1 (published 2025).
